According to paper PMC9204233, “Characterization of Catechol-1,2-Dioxygenase (Acdo1p) From Blastobotrys raffinosifermentans and Investigation of Its Role in the Catabolism of Aromatic Compounds” (Frontiers in Microbiology, 2022):
Blank lines part the entries; values can stand above or below the compound they belong to.

Tests used:
[1] = target: Blastobotrys raffinosifermentans catechol-1,2-dioxygenase with C-terminal 6His-tag (Acdo1-6hp) (Blastobotrys raffinosifermentans LS3); assay: SEC; gel filtration on Superdex 200; 50 mM Tris (pH 8), 0.15 M NaCl; flow 1 mL/min; mass against a calibration curve (blue dextran, ferritin, catalase, bovine albumin, RNAse A, vitamin B12); 'indicative' molecular mass
[2] = target: T1, Acdo1-6hp (Acdo1p, catechol-1,2-dioxygenase) (Blastobotrys raffinosifermentans, UniProt A0A060T9I8); assay: spectrophotometric, 2-hydroxymuconic acid formation at […] nm; type: biochemical; conditions: 50 mM Tris-HCl pH 7.5, ~20 °C
T1 construct: expressed in B. raffinosifermentans G1212, HisTrap purified

Oc1ccc(O)c(O)c1 = assay: purified protein; conditions: pH 7.5, 20 °C
Oc1ccccc1O = assay: purified protein; conditions: 50 mM Tris-HCl pH 7.5, ~20 °C

T1 sequence (A0A060T9I8 1-334 limits assumed): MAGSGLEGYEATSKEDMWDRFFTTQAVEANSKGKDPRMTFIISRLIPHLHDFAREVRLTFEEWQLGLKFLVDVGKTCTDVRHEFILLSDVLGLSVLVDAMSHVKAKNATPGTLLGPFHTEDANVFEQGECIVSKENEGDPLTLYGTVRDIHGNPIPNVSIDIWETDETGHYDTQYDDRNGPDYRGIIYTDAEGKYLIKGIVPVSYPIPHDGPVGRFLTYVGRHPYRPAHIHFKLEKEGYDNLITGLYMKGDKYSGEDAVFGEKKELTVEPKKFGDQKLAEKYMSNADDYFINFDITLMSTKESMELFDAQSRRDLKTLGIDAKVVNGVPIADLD

stoichiometry N [1]: 2
Compound: Blastobotrys raffinosifermentans catechol-1,2-dioxygenase with C-terminal 6His-tag (Acdo1-6hp) (enzyme)

Km [2]: 100 ± 20 µM
Compound: Oc1cccc(O)c1O [pyrogallol]

Compound: Acdo1-6hp (Acdo1p, catechol-1,2-dioxygenase) (Blastobotrys raffinosifermentans)
Km (Oc1ccc(O)c(O)c1): 8 ± 2 µM | kcat (Oc1ccc(O)c(O)c1): 17 ± 3.5 s⁻¹ | kcat/Km (Oc1ccc(O)c(O)c1): 2.13e+06 ± 971000 M⁻¹ s⁻¹ | Km (Oc1ccccc1O): 4 ± 1 µM | kcat (Oc1ccccc1O): 15.6 ± 0.4 s⁻¹ | kcat/Km (Oc1ccccc1O): 3.95e+06 ± 930000 M⁻¹ s⁻¹
